Laboratory results published in article PMC11969024 (2025).

B1: peptide HD2 (from tick evasin EVA4) / CXCL14 (biotinylated, synthetic) (parent complex)
chain 1: EEDDYTAYAPLTCYFT
chain 2: SKCKCSRKGPKIRYSDVKKLEMKPKYPHCEEKMVIITTKSVSRYRGQEHCLHPKLQSTKRFIKWYNAWNEKRRVYEE
B2: peptide HD2 (from tick evasin EVA4) / CXCL11 (biotinylated, synthetic) (parent complex)
chain 1: EEDDYTAYAPLTCYFT
chain 2: FPMFKRGRCLCIGPGVKAVKVADIEKASIMYPSNNCDKIEVIITLKENKGQRCLNPKSKQARLIIKKVERKNF

Variants of: B1

Variant	enrichment
chain 1 E1S	-6.03 log2 (difference from the parental peptide)
chain 1 E1Q	-2.86 log2 (difference from the parental peptide)
chain 1 E1V	-5.63 log2 (difference from the parental peptide)
chain 1 T12D	-6.91 log2 (difference from the parental peptide)
chain 1 T12I	3.47 log2 (difference from the parental peptide)
chain 1 T12N	-6.02 log2 (difference from the parental peptide)
chain 1 T12M	-4.31 log2 (difference from the parental peptide)
chain 1 T12G	-8.56 log2 (difference from the parental peptide)
chain 1 T12A	-6.47 log2 (difference from the parental peptide)
chain 1 T12E	-5.22 log2 (difference from the parental peptide)
chain 1 Y14A	-0.328 log2 (difference from the parental peptide)
chain 1 Y14E	-0.269 log2 (difference from the parental peptide)
chain 1 Y14C	-4.99 log2 (difference from the parental peptide)
chain 1 Y14V	-3.62 log2 (difference from the parental peptide)
chain 1 P10E	3.27 log2 (difference from the parental peptide)
chain 1 P10Q	-4.65 log2 (difference from the parental peptide)
chain 1 P10F	-2.31 log2 (difference from the parental peptide)
chain 1 P10D	-1.54 log2 (difference from the parental peptide)
chain 1 P10M	2.33 log2 (difference from the parental peptide)
chain 1 P10L	0.0771 log2 (difference from the parental peptide)
chain 1 P10H	0.862 log2 (difference from the parental peptide)
chain 1 L11R	-4.9 log2 (difference from the parental peptide)

Variant	enrichment
chain 1 L11C	0.549 log2 (difference from the parental peptide)
chain 1 L11A	0.339 log2 (difference from the parental peptide)
chain 1 L11V	-0.136 log2 (difference from the parental peptide)
chain 1 T6P	1.85 log2 (difference from the parental peptide)
chain 1 T6S	-0.144 log2 (difference from the parental peptide)
chain 1 T6N	0.149 log2 (difference from the parental peptide)
chain 1 T6E	2.79 log2 (difference from the parental peptide)
chain 1 T6K	-5.43 log2 (difference from the parental peptide)
chain 1 T6Y	3.46 log2 (difference from the parental peptide)
chain 1 T6M	1.47 log2 (difference from the parental peptide)
chain 1 A9N	4.16 log2 (difference from the parental peptide)
chain 1 A9K	-4.89 log2 (difference from the parental peptide)
chain 1 A9T	2.11 log2 (difference from the parental peptide)
chain 1 A9H	-6.47 log2 (difference from the parental peptide)
chain 1 A9Q	3.77 log2 (difference from the parental peptide)
chain 1 A9F	0.278 log2 (difference from the parental peptide)
chain 1 A9G	-5.95 log2 (difference from the parental peptide)
chain 1 A9V	-2.17 log2 (difference from the parental peptide)
chain 1 D3Y	0.926 log2 (difference from the parental peptide)
chain 1 D3F	-3.03 log2 (difference from the parental peptide)
chain 1 D3N	1.21 log2 (difference from the parental peptide)
chain 1 D3I	-8.12 log2 (difference from the parental peptide)

Variant	enrichment
chain 1 D3G	1.82 log2 (difference from the parental peptide)
chain 1 E2M	-6.07 log2 (difference from the parental peptide)
chain 1 E2N	0.243 log2 (difference from the parental peptide)
chain 1 E2V	-0.0348 log2 (difference from the parental peptide)
chain 1 T16L	1.24 log2 (difference from the parental peptide)
chain 1 T16C	1.19 log2 (difference from the parental peptide)
chain 1 T16I	0.982 log2 (difference from the parental peptide)
chain 1 T16W	2.14 log2 (difference from the parental peptide)
chain 1 T16S	-5.85 log2 (difference from the parental peptide)
chain 1 T16H	3.56 log2 (difference from the parental peptide)
chain 1 T16G	2.47 log2 (difference from the parental peptide)
chain 1 D4M	-6.89 log2 (difference from the parental peptide)
chain 1 D4P	1.82 log2 (difference from the parental peptide)
chain 1 D4F	-0.493 log2 (difference from the parental peptide)
chain 1 Y5M	-5.9 log2 (difference from the parental peptide)
chain 1 Y5F	-5.86 log2 (difference from the parental peptide)
chain 1 Y5W	-1.34 log2 (difference from the parental peptide)
chain 1 Y5L	-2.83 log2 (difference from the parental peptide)
chain 1 A7Y	2.89 log2 (difference from the parental peptide)
chain 1 A7H	1.29 log2 (difference from the parental peptide)
chain 1 A7G	1.97 log2 (difference from the parental peptide)
chain 1 A7R	1.24 log2 (difference from the parental peptide)

Variant	enrichment
chain 1 A7S	1 log2 (difference from the parental peptide)
chain 1 A7T	-5.45 log2 (difference from the parental peptide)
chain 1 Y8M	1.74 log2 (difference from the parental peptide)
chain 1 Y8P	-6.13 log2 (difference from the parental peptide)
chain 1 Y8N	-4.8 log2 (difference from the parental peptide)
chain 1 Y8L	0.358 log2 (difference from the parental peptide)
chain 1 F15L	-4.99 log2 (difference from the parental peptide)
chain 1 F15C	1.14 log2 (difference from the parental peptide)
chain 1 F15M	0.3 log2 (difference from the parental peptide)
chain 1 F15Y	3.35 log2 (difference from the parental peptide)
chain 1 F15W	-6.44 log2 (difference from the parental peptide)
chain 1 F15N	-3.99 log2 (difference from the parental peptide)
chain 1 F15H	-4.57 log2 (difference from the parental peptide)
chain 1 F15G	-8.03 log2 (difference from the parental peptide)
chain 1 F15S	-6.23 log2 (difference from the parental peptide)
chain 1 F15V	0.451 log2 (difference from the parental peptide)
chain 1 C13P	-6.86 log2 (difference from the parental peptide)
chain 1 C13T	-5.9 log2 (difference from the parental peptide)
chain 1 C13N	-4.88 log2 (difference from the parental peptide)
chain 1 C13S	-3.41 log2 (difference from the parental peptide)

Variants of: B2

Variant	enrichment
chain 1 Y5H	-0.00324 log2 (difference from the parental peptide)
chain 1 Y5L	-4.33 log2 (difference from the parental peptide)
chain 1 E1M	0.144 log2 (difference from the parental peptide)
chain 1 E1H	-5.11 log2 (difference from the parental peptide)
chain 1 E1W	1.25 log2 (difference from the parental peptide)
chain 1 E1Q	2.79 log2 (difference from the parental peptide)
chain 1 E1F	-0.271 log2 (difference from the parental peptide)
chain 1 E1G	-4.38 log2 (difference from the parental peptide)
chain 1 E1S	-1.7 log2 (difference from the parental peptide)
chain 1 E1T	-1.21 log2 (difference from the parental peptide)
chain 1 A9P	0.549 log2 (difference from the parental peptide)
chain 1 A9S	-0.211 log2 (difference from the parental peptide)
chain 1 A9F	-0.826 log2 (difference from the parental peptide)
chain 1 A9G	-1.08 log2 (difference from the parental peptide)
chain 1 A9Y	-4.48 log2 (difference from the parental peptide)
chain 1 T16N	-3.84 log2 (difference from the parental peptide)
chain 1 T16K	-4.41 log2 (difference from the parental peptide)
chain 1 T16G	0.304 log2 (difference from the parental peptide)
chain 1 T16A	-0.756 log2 (difference from the parental peptide)
chain 1 T16W	0.43 log2 (difference from the parental peptide)
chain 1 E2W	1.67 log2 (difference from the parental peptide)
chain 1 E2V	-1.84 log2 (difference from the parental peptide)

Variant	enrichment
chain 1 E2D	0.953 log2 (difference from the parental peptide)
chain 1 E2A	-2.47 log2 (difference from the parental peptide)
chain 1 E2N	-4.96 log2 (difference from the parental peptide)
chain 1 E2L	-1.04 log2 (difference from the parental peptide)
chain 1 T12P	-0.00384 log2 (difference from the parental peptide)
chain 1 T12N	-0.502 log2 (difference from the parental peptide)
chain 1 T12L	-0.306 log2 (difference from the parental peptide)
chain 1 T12C	-5.77 log2 (difference from the parental peptide)
chain 1 L11F	2.94 log2 (difference from the parental peptide)
chain 1 L11K	-4.12 log2 (difference from the parental peptide)
chain 1 C13N	-3.76 log2 (difference from the parental peptide)
chain 1 C13T	-3.56 log2 (difference from the parental peptide)
chain 1 C13H	-5.78 log2 (difference from the parental peptide)
chain 1 C13P	-5.74 log2 (difference from the parental peptide)
chain 1 C13S	-1.17 log2 (difference from the parental peptide)
chain 1 C13L	-8.45 log2 (difference from the parental peptide)
chain 1 A7I	1.35 log2 (difference from the parental peptide)
chain 1 A7Y	2.5 log2 (difference from the parental peptide)
chain 1 Y14W	-6.01 log2 (difference from the parental peptide)
chain 1 Y14A	-7.18 log2 (difference from the parental peptide)
chain 1 Y14L	-3.92 log2 (difference from the parental peptide)
chain 1 D3G	-4.59 log2 (difference from the parental peptide)

Variant	enrichment
chain 1 D3L	-0.828 log2 (difference from the parental peptide)
chain 1 D3I	-2.24 log2 (difference from the parental peptide)
chain 1 P10A	-0.641 log2 (difference from the parental peptide)
chain 1 P10T	-0.0022 log2 (difference from the parental peptide)
chain 1 P10G	2.73 log2 (difference from the parental peptide)
chain 1 D4Q	-3.62 log2 (difference from the parental peptide)
chain 1 D4Y	-4.43 log2 (difference from the parental peptide)
chain 1 Y8A	-0.869 log2 (difference from the parental peptide)
chain 1 Y8W	2.23 log2 (difference from the parental peptide)
chain 1 Y8T	-5.62 log2 (difference from the parental peptide)
chain 1 Y8G	-1.09 log2 (difference from the parental peptide)
chain 1 Y8L	-0.881 log2 (difference from the parental peptide)
chain 1 T6V	-0.999 log2 (difference from the parental peptide)
chain 1 T6E	3.52 log2 (difference from the parental peptide)
chain 1 T6L	3.05 log2 (difference from the parental peptide)
chain 1 F15W	-6.32 log2 (difference from the parental peptide)
chain 1 F15D	-1.93 log2 (difference from the parental peptide)
chain 1 F15K	-4.14 log2 (difference from the parental peptide)
chain 1 F15P	-3.5 log2 (difference from the parental peptide)
chain 1 F15I	-3.39 log2 (difference from the parental peptide)
